According to patent US20230374116A1 (ROSALIND FRANKLIN INSTITUTE, published 2023):

B1: C5 trimer (VHH)
chain: QVQLVESGGGSVQAGGSLTLSCVASGVTLGRHAIGWFRQAPGKERERVSCIRTFDGITSYVESTKGRFTISSNNAMNTVYLQMNSLKPEDTAVYFCALGVTAACSDNPYFWGQGTQVTVSSGSGSGSQVQLVESGGGSVQAGGSLTLSCVASGVTLGRHAIGWFRQAPGKERERVSCIRTFDGITSYVESTKGRFTISSNNAMNTVYLQMNSLKPEDTAVYFCALGVTAACSDNPYFWGQGTQVTVSSGSGSGSQVQLVESGGGSVQAGGSLTLSCVASGVTLGRHAIGWFRQAPGKERERVSCIRTFDGITSYVESTKGRFTISSNNAMNTVYLQMNSLKPEDTAVYFCALGVTAACSDNPYFWGQGTQVTVSS
notes: also called trimeric C5 nanobody; C5-6GS-C5-6GS-C5
B2: H3 trimer (VHH)
chain: QVQLVESGGGLVKTGGSLRLSCAASGRTFSTYSMGWFRQAPGKEREFVAGMRWTGSSTFYSDSVKGRFTVSRNNAKDTVYLHMNSLKPEDTAVYYCAITTIVRAYYTEYTEADFGSWGQGTQVTVSSGAVLAPQVQLVESGGGLVKTGGSLRLSCAASGRTFSTYSMGWFRQAPGKEREFVAGMRWTGSSTFYSDSVKGRFTVSRNNAKDTVYLHMNSLKPEDTAVYYCAITTIVRAYYTEYTEADFGSWGQGTQVTVSSGSGSGSQVQLVESGGGLVKTGGSLRLSCAASGRTFSTYSMGWFRQAPGKEREFVAGMRWTGSSTFYSDSVKGRFTVSRNNAKDTVYLHMNSLKPEDTAVYYCAITTIVRAYYTEYTEADFGSWGQGTQVTVSS
B3: A8 trimer (bispecific antibody)
chain: QVQLVESGGGLVQAGGSLRLSCAASGGTFSTAAMGWFRQAPGEERECVASIGWRGVRTWYADSVKGRFTISRDNPQNTVYLQMNNLKSGDTAVYYCAASVGNYGLPWAHFEYDFWGQGIQVTVSSGSGSGSQVQLVESGGGLVQAGGSLRLSCAASGGTFSTAAMGWFRQAPGEERECVASIGWRGVRTWYADSVKGRFTISRDNPQNTVYLQMNNLKSGDTAVYYCAASVGNYGLPWAHFEYDFWGQGIQVTVSSGSGSGSQVQLVESGGGLVQAGGSLRLSCAASGGTFSTAAMGWFRQAPGEERECVASIGWRGVRTWYADSVKGRFTISRDNPQNTVYLQMNNLKSGDTAVYYCAASVGNYGLPWAHFEYDFWGQGTQVTVSSKHHHHHH
B4: C1 trimer (VHH)
chain: QVQLVESGGGLVQPGGSLRLSCAASGFTNDFYSIAWFRQAPGKEREGVSWLSVSDNTPTYVDSVKDRFTISRHNANNTVYLQMNMLKPEDTAIYYCAAGRFAGRDTWPSSYDYWGQGTQVTVSSGSGSGSQVQLVESGGGLVQPGGSLRLSCAASGFTNDFYSIAWFRQAPGKEREGVSWLSVSDNTPTYVDSVKDRFTISRHNANNTVYLQMNMLKPEDTAIYYCAAGRFAGRDTWPSSYDYWGQGTQVTVSSGSGSGSQVQLVESGGGLVQPGGSLRLSCAASGFTNDFYSIAWFRQAPGKEREGVSWLSVSDNTPTYVDSVKDRFTISRHNANNTVYLQMNMLKPEDTAIYYCAAGRFAGRDTWPSSYDYWGQGTQVTVSS

Biological target: Spike protein on live SARS-CoV-2 Alpha strain (SARS-CoV-2 Alpha (B.1.1.7), UniProt P0DTC2 14-1273)
Assay: cell-based or functional assay

| Binder | ND 50 MN assay, live virus [nM] |
| --- | --- |
| B1 | 0.25 |
| B2 | 0.6 |
| B3 | 0.1 |
| B4 | 8.2 |

Biological target: Spike protein on live SARS-CoV-2 Beta strain (SARS-CoV-2 Beta (B.1.351), UniProt P0DTC2 14-1273)
Assay: cell-based or functional assay

| Binder | ND 50 MN assay, live virus [nM] |
| --- | --- |
| B3 | 0.2 |
| B4 | 4.5 |

Biological target: Spike protein on live SARS-CoV-2 Delta strain (SARS-CoV-2 Delta (B.1.617.2), UniProt P0DTC2 14-1273)
Assay: cell-based or functional assay

| Binder | ND 50 MN assay, live virus [nM] |
| --- | --- |
| B1 | 0.02 |
| B2 | 0.3 |
| B3 | 0.1 |
| B4 | 3.1 |
